The chains are these.
B1: Histone H1t, residues 44 to 112; numbered along this chain, P22492 (parent)
chain: VSKLITEALSVSQERVGMSLVALKKALAAAGYDVEKNNSRIKLSLKSLVNKGILVQTRGTGASGSFKLS

± gives the uncertainty stated by the source.

The variants in this data set derive from B1. As to the kind of experiment: abundance fitness (aPCA) (normalised: wild type 0, dead -1); higher = more abundant; growth selection in yeast, the domain comes from the species named. As to conditions: Homo sapiens.
With VSKLITEALSVSQERVGMSLVALKKALAAAGYDVEKNNSSIKLSLKSLVNKGILVQTRGTGASGSFKLS, the abundance fitness was -0.404 ± 0.12.
Regarding VSKLITEALSVSQERVGMSLVALKKALAAAGYDVEKNNSQIKLSLKSLVNKGILVQTRGTGASGSFKLS, the abundance fitness is 0.024 ± 0.028.
The value for VSKLITEALSVSQERVGMSLVALKKALAAAGYDVEKNNSHIKLSLKSLVNKGILVQTRGTGASGSFKLS was -0.094 ± 0.072; that for VSKLITEALSVSQERVGMSLVALKKALAAAGYDVEKNNSMIKLSLKSLVNKGILVQTRGTGASGSFKLS was -0.215 ± 0.18; that for VSKLITEALSVSQERVGMSLVALKKALAAAGYDVEKNNSAIKLSLKSLVNKGILVQTRGTGASGSFKLS was 0.091 ± 0.035.
The value for VSKLITEALSVSQERVGMSLVALKKALAAAGYDVEKNNSTIKLSLKSLVNKGILVQTRGTGASGSFKLS was -0.085 ± 0.03.
The value for VSKLITEALSVSQERVGMSLVALKKALAAAGYDVEKNNSEIKLSLKSLVNKGILVQTRGTGASGSFKLS was -0.036 ± 0.056.
VSKLITEALSVSQERVGMSLVALKKALAAAGYDVEKNVSRIKLSLKSLVNKGILVQTRGTGASGSFKLS: the abundance fitness stood at 0.047 ± 0.085.
With VSKLITEALSVSQERVGMSLVALKKALAAAGYDVEKNISRIKLSLKSLVNKGILVQTRGTGASGSFKLS, the abundance fitness was -0.162 ± 0.34.
With VSKLITEALSVSQERVGMSLVALKKALAAAGYDVEKNESRIKLSLKSLVNKGILVQTRGTGASGSFKLS the figure was -0.061 ± 0.14.
In the case of VSKLITEALSVSQERVGMSLVALKKALAAAGYDVEKNDSRIKLSLKSLVNKGILVQTRGTGASGSFKLS, the abundance fitness is -0.632 ± 0.23.
The value for VSKLITEALSVSQERVGMSLVALKKALAAAGYDVEKNPSRIKLSLKSLVNKGILVQTRGTGASGSFKLS was -0.168 ± 0.069.
The value for VSKLITEALSVSQERVGMSLVALKKALAAAGYDVEKNMSRIKLSLKSLVNKGILVQTRGTGASGSFKLS was 0.084 ± 0.16; that for VSKLITEALSVSQERVGMSLVALKKALAAAGYDVEKNSSRIKLSLKSLVNKGILVQTRGTGASGSFKLS was 0.044 ± 0.09; that for VSKLITEALSVSQERVGMSLVALKKALAAAGYDVEKNRSRIKLSLKSLVNKGILVQTRGTGASGSFKLS was -0.393 ± 0.28.
The value for VSKLITEALSVSQERVGMSLVALKKALAAAGYDVEKNHSRIKLSLKSLVNKGILVQTRGTGASGSFKLS was -0.405 ± 0.39; that for VSKLITEALSVSQERVGMSLVALKKALAAAGYDVEKNLSRIKLSLKSLVNKGILVQTRGTGASGSFKLS was 0.048 ± 0.066.
For VSKLITEALSVSQERVGMSLVALKKALAAAGYDVEKNTSRIKLSLKSLVNKGILVQTRGTGASGSFKLS, the abundance fitness is 0.109 ± 0.14.
With VSKLITEALSVSQERVGMSLVALKKALAAAGYDVEKNKSRIKLSLKSLVNKGILVQTRGTGASGSFKLS the figure was -0.124 ± 0.36; with VSKLITEALSVSQERVGMSLVALKKALAAAGYDVEKNQSRIKLSLKSLVNKGILVQTRGTGASGSFKLS, -0.058 ± 0.1; with VSKLITEALSVSQERVGMSLVALKKALAAAGYDVEKNWSRIKLSLKSLVNKGILVQTRGTGASGSFKLS, 0.105 ± 0.22.
The value for VSKLITEALSVSQERVGMSLVALKKALAAAGYDVEKNASRIKLSLKSLVNKGILVQTRGTGASGSFKLS was 0.106 ± 0.087; that for VSKLITEALSVSQERVGMSLVALKKALAAAGYDVEKNGSRIKLSLKSLVNKGILVQTRGTGASGSFKLS was -0.122 ± 0.15; that for VSKLITEALSVSQERVGMSLVALKKALAAAGYDVEKNNSRTKLSLKSLVNKGILVQTRGTGASGSFKLS was -0.56 ± 0.039.
With VSKLITEALSVSQERVGMSLVALKKALAAAGYDVEKNNSRNKLSLKSLVNKGILVQTRGTGASGSFKLS the figure was -0.542 ± 0.052.
VSKLITEALSVSQERVGMSLVALKKALAAAGYDVEKNNSRCKLSLKSLVNKGILVQTRGTGASGSFKLS: the abundance fitness is -0.439 ± 0.054.
As for VSKLITEALSVSQERVGMSLVALKKALAAAGYDVEKNNSRYKLSLKSLVNKGILVQTRGTGASGSFKLS, the abundance fitness was -0.43 ± 0.057.
The value for VSKLITEALSVSQERVGMSLVALKKALAAAGYDVEKNNSRDKLSLKSLVNKGILVQTRGTGASGSFKLS was -0.742 ± 0.13.
With VSKLITEALSVSQERVGMSLVALKKALAAAGYDVEKNNSREKLSLKSLVNKGILVQTRGTGASGSFKLS the figure was -0.813 ± 0.11.
With VSKLITEALSVSQERVGMSLVALKKALAAAGYDVEKNNSRGKLSLKSLVNKGILVQTRGTGASGSFKLS the figure was -0.405 ± 0.041; with VSKLITEALSVSQERVGMSLVALKKALAAAGYDVEKNNSRPKLSLKSLVNKGILVQTRGTGASGSFKLS, -0.394 ± 0.035.
As to VSKLITEALSVSQERVGMSLVALKKALAAAGYDVEKNNSRMKLSLKSLVNKGILVQTRGTGASGSFKLS, the abundance fitness was -0.191 ± 0.031.
The value for VSKLITEALSVSQERVGMSLVALKKALAAAGYDVEKNNSRWKLSLKSLVNKGILVQTRGTGASGSFKLS was -0.113 ± 0.043; that for VSKLITEALSVSQERVGMSLVALKKALAAAGYDVEKNNSRFKLSLKSLVNKGILVQTRGTGASGSFKLS was -0.055 ± 0.031; that for VSKLITEALSVSQERVGMSLVALKKALAAAGYDVEKNNSRLKLSLKSLVNKGILVQTRGTGASGSFKLS was -0.124 ± 0.026.
The value for VSKLITEALSVSQERVGMSLVALKKALAAAGYDVEKNNSRRKLSLKSLVNKGILVQTRGTGASGSFKLS was -0.514 ± 0.034.
With VSKLITEALSVSQERVGMSLVALKKALAAAGYDVEKNNSRQKLSLKSLVNKGILVQTRGTGASGSFKLS the figure was -0.556 ± 0.049.
For VSKLITEALSVSQERVGMSLVALKKALAAAGYDVEKNNSRHKLSLKSLVNKGILVQTRGTGASGSFKLS, the abundance fitness is -0.444 ± 0.049.
The value for VSKLITEALSVSQERVGMSLVALKKALAAAGYDVEKNNSRVKLSLKSLVNKGILVQTRGTGASGSFKLS was -0.308 ± 0.041.

The values above are taken from the Human Domainome abundance scans (Beltran et al. 2025).
